Literature values as cited in article PMC7589189.
Read-outs that look alike come from different tables or passages of the source.

What was measured:
ActRIIA (Homo sapiens) = ActRIIA (Homo sapiens) (UniProt P27037)
ALK1-Fc (Homo sapiens) = ALK1-Fc (Homo sapiens) (UniProt P37023); assay: SPR
TβRII (Homo sapiens) [1] = target: TβRII (Homo sapiens) (UniProt P37173)
TβRII (Homo sapiens) [2] = target: TβRII (Homo sapiens) (UniProt P37173); remark: listed apart in the source
TβRII (Homo sapiens) [3] = target: TβRII (Homo sapiens) (UniProt P37173); remark: listed apart in the source

Sequence of TβRII (Homo sapiens) (P37173 23-166): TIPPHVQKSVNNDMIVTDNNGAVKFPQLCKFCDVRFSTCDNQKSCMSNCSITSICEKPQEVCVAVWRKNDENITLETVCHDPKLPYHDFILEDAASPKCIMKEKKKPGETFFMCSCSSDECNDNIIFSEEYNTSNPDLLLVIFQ
Sequence of ALK1-Fc (Homo sapiens) (P37023 22-118): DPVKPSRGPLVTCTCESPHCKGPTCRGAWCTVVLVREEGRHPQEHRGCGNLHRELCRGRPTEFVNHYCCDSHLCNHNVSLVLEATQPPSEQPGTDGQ
Sequence of BMP-9 (Q9UK05 320-429): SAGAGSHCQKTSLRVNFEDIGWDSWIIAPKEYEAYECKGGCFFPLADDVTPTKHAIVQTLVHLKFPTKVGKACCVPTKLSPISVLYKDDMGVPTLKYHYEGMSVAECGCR
Sequence of pro-BMP-9 (Q9UK05 320-429): as above
Sequence of TGF-β3 (P10600 301-412): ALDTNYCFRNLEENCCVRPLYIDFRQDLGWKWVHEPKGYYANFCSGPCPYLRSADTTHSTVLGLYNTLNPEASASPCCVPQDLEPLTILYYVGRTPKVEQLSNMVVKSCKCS
Sequence of TGF-β2 (P61812 303-414): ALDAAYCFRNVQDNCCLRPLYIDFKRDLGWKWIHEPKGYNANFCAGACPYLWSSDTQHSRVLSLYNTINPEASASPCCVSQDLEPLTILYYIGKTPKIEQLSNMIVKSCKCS
Sequence of ActRIIA (Homo sapiens) (P27037 20-135): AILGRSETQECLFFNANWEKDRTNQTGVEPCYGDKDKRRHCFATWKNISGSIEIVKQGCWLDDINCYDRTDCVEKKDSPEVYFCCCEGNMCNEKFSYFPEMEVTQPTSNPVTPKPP
Sequence of TGF-β1 (P01137 279-390): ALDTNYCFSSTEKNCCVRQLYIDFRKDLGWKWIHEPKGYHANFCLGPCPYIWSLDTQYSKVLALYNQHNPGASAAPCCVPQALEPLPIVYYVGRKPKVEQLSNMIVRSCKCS
Sequence of BMP-7 (P18075 293-431): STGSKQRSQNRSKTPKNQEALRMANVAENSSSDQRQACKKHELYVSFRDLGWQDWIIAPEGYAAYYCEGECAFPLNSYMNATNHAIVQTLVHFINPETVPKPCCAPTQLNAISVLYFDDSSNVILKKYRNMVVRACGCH

**Q.** For BMP-7 (from UniProt P18075), which Kd (ActRIIA (Homo sapiens)) is on record?
**A.** 8 nM

**Q.** Which Kd (ALK1-Fc (Homo sapiens)) does the source give for BMP-9 (from UniProt Q9UK05) here?
**A.** 0.048 nM

**Q.** Which Kd (TβRII (Homo sapiens) [1]) does the source give for TGF-β1 (from UniProt P01137) here?
**A.** 0.2 nM

**Q.** For TGF-β2 (from UniProt P61812), which Kd (TβRII (Homo sapiens) [2]) is on record?
**A.** > 10 nM

**Q.** For TGF-β3 (from UniProt P10600), which Kd (TβRII (Homo sapiens) [3]) is on record?
**A.** 0.5 nM

**Q.** With pro-BMP-9 (from UniProt Q9UK05) as the substance, how does the Kd (ALK1-Fc (Homo sapiens)) read?
**A.** 0.061 nM
